According to patent US20230287146A1 (LAMKAP BIO GAMMA, published 2023):

B1: AI3P30/N (bispecific antibody, human IgG1, kappa, lambda, L234A L235A)
heavy: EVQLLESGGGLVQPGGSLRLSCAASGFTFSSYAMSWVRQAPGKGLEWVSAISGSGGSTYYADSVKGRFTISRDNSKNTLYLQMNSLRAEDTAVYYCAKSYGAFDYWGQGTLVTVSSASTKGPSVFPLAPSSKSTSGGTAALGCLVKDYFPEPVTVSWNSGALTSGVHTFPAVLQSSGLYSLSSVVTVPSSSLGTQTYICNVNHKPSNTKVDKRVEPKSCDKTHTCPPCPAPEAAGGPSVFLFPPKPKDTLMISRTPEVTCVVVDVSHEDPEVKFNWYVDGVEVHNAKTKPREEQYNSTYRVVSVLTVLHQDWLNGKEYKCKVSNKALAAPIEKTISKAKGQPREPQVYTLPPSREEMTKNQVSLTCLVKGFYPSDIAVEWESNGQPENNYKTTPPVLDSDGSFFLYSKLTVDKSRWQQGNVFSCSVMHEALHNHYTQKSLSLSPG
light 1: not shown
light 2: QSALTQPASVSGSPGQSITISCTGTSSDVPEDALVSWYQQHPGKAPKLMIYYDSTRPSGVSNRFSGSKSGNTASLTISGLQAEDEADYYCSSWDFGTGSKVFGGGTKLTVLGQPKAAPSVTLFPPSSEELQANKATLVCLISDFYPGAVTVAWKADSSPVKAGVETTTPSKQSNNKYAASSYLSLTPEQWKSHRSYSCQVTHEGSTVEKTVAPTECS
notes: also called GPC3×CD28 bispecific antibody
B2: AI3P44/N (bispecific antibody, human IgG1, kappa, lambda, L234A L235A)
heavy: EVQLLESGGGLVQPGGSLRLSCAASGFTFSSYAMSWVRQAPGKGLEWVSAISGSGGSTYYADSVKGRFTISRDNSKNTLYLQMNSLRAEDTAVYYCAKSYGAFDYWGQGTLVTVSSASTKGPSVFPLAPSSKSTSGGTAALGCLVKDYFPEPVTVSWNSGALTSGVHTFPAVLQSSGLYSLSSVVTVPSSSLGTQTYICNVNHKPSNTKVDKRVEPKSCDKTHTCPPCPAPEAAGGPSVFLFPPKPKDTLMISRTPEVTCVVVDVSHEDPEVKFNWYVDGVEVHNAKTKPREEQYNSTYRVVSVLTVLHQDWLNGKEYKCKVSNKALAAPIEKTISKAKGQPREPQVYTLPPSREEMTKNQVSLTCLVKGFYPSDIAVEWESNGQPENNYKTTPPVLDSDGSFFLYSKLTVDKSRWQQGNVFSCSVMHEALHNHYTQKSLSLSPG
light 1: not shown
light 2: NFMLTQPHSVSESPGKTVTISCTRSSGSISYDDVQWYQQRPGSSPTTVIYFNNLRPSGVPDRFSGSIDSSSNSASLTISGLKTEDEADYYCQSWDLRHRVFGGGTKLTVLGQPKAAPSVTLFPPSSEELQANKATLVCLISDFYPGAVTVAWKADSSPVKAGVETTTPSKQSNNKYAASSYLSLTPEQWKSHRSYSCQVTHEGSTVEKTVAPTECS
notes: also called GPC3×CD28 bispecific antibody; GPC3×CD28 κλ-body
B3: AI10P44/N (bispecific antibody, human IgG1, kappa, lambda, L234A L235A)
heavy: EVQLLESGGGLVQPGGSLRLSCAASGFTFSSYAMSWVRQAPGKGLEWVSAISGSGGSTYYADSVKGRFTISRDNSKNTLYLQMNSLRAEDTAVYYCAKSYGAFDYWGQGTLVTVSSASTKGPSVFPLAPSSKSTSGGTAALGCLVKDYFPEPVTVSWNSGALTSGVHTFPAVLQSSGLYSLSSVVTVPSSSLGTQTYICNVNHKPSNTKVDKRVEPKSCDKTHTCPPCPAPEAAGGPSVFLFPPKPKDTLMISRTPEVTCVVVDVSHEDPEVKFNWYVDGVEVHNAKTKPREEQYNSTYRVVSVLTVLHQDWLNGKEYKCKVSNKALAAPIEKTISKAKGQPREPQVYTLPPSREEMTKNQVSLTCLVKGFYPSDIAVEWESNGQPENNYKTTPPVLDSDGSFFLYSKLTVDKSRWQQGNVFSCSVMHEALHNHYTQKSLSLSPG
light 1: DIVMTQTPLSLSVTPGQPASISCKSSGDLLEFAGKTYLYWYLQKPGQPPQLLIYEVSNRFSGVPDRFSGSGSGTDFTLKISRVEAEDVGVYYCMQAHGSKIGFTFGQGTKVEIKRTVAAPSVFIFPPSDEQLKSGTASVVCLLNNFYPREAKVQWKVDNALQSGNSQESVTEQDSKDSTYSLSSTLTLSKADYEKHKVYACEVTHQGLSSPVTKSFNRGEC
light 2: B2 light 2
notes: also called AI10-containing bispecific antibody; GPC3×CD28 bispecific antibody
B4: AI10 anti-CD28 bivalent mAb (antibody, V domains shown)
VH: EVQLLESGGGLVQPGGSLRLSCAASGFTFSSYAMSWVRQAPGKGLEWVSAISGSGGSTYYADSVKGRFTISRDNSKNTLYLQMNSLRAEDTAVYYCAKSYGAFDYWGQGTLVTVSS
VL: DIVMTQTPLSLSVTPGQPASISCKSSGDLLEFAGKTYLYWYLQKPGQPPQLLIYEVSNRFSGVPDRFSGSGSGTDFTLKISRVEAEDVGVYYCMQAHGSKIGFTFGQGTKVEIK

Experiments:
human CD28 [1] = molecular target: T1, human CD28 (human, UniProt P10747 19-220); assay: flow cytometry on Jurkat cells
T1 construct: whole, on cells; also called huCD28
Method: (§1) Cells were harvested, checked for viability, and counted. 200'000 cells were incubated for 15 minutes at 4° C. with increasing concentrations of the antibodies diluted in FACS buffer (PBS 2% BSA). Cells were washed twice with cold FACS buffer and re-incubated for further 15 minutes at 4° C. with a suitable anti-human IgG secondary antibody. Cells were washed twice with cold FACS buffer and resuspended in 150 μl FACS buffer with a compatible viability marker. Binding of antibodies to living cells was measured by flow cytometry using a Cytoflex Platform (Beckman Coulter). Data was analyzed with FlowJo™ v10 software (BD Life Sciences) and dose-response binding curves were drawn using GraphPad Prism 9 software. AD84 GPC3 arm of the GPC3×CD3 bispecific antibody and P44, P30, P111 GPC3 arms of the GPC3×CD28 bispecific antibodies of this invention were selected from this screening process based on their specificity and binding signal intensity to GPC3 positive cells.
Examples of cells that can be used include GPC3 positive cell lines such as the gastric carcinoma cell line FU97 (JCRB1074), CD28 positive cell lines such as the leukemic Jurkat T cells as well as GPC3/CD28 double negative cell line, such as the leukemic TIB-153 cells. Cell staining and binding assessment was performed as described in Example 6. An irrelevant hIgG1 mAb served as negative isotype control and was used in all shown experiments for comparison. Binding data on FU97 cells (FIG. 2A) emphasizes the range of binding affinities for huGPC3 of the selected anti-GPC3 arms of the invention, P44 and P30. Both P44 and P30 arms are binding to membrane distal domains within GPC3. Binding on CD3 positive Jurkat cells highlight how these two CD28×GPC3 bispecific antibodies sharing the same anti-CD28 arm (e.g. AI3) bind similarly to CD28 positive cells (FIG. 2B).

human CD28 [2] = molecular target: T1, human CD28; assay: flow cytometry, bivalent mAb on Jurkat cells
Method: as §1
The binding capacity of the anti-CD28 antibody arms of the invention, tested as bivalent mAbs, was assessed using Jurkat cells (Jurkat Clone E6-1, ATCC TIB 152) by flow cytometry. The flow cytometry methodology was the same as the one described above. AI3 and AI10 CD28 binding arms were selected from this screening process based on their specificity and binding signal intensity to CD28 positive cells.

T1 sequence (P10747 19-220): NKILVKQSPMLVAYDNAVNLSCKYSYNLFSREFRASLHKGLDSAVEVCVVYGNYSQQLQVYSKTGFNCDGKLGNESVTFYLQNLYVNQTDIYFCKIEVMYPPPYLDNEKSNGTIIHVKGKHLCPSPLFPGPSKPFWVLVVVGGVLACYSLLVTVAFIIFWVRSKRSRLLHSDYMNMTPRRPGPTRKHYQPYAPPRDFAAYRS

Binder | binding result (human CD28 [1]) | binding result (human CD28 [2])
B1 | binds | 
B2 | binds | 
B3 | binds | 
B4 |  | binds
